Results from paper PMC5289745 (Biochemistry, 2015).

B1: PcrG-GB1-His6 (natural protein)
chain: MGDMNEYTEDTLRATVQAAELAIRDSEERGRLLAEMWQGLGLAADAGELLFQAPERELARAAEEELLAELRRMRSSQPTQGEQGTRPRRPTPMRGLLIGSENLYFQ
B2: PcrG^9–76-GB1-His6 (domain or fragment)
chain: MEDTLRATVQAAELAIRDSEERGRLLAEMWQGLGLAADAGELLFQAPERELARAAEEELLAELRRMRSSGSENLYFQ

Molecular target: PcrV (residues 25–294) (P. aeruginosa, UniProt G3XD49 25-294)
Test: SPR

Row | Binder | Kd
1 | B1 | 26 nM
2 | B2 | 24 nM
